A short description of this series: soluble on expression in E. coli; label from the status in PepcDB or PDB records.
In the case of “MSQTVNIVGAGLAGSEAAYQLAQRGIKVNLIEMRPVKQTPAHHTDKFAELVCSNSLRGNALTNGVGVLKEEMRRLDSLIISAADKARVPAGGALAVDRHDFSGYITETLRNHPNVTVINEEINSIPEGYTIIATGPLTTENLAKEIVDITGKDQLYFYDAAAPIIEKESIDMDKVYLKSRYDKGEAAYLNCPMTEEEFNRFYDAVLEAEVAPTNEFEKEKYFEGCMPFEVMAERGRKTLLFGPMKPVGLEDPKTGKRPFAVVQLRQDDAAGTLYNIVGFQTHLKWGAQKEVIRLIPGLENVDIVRYGVMHRNTFINSPDVLNEKYELIKEDRIQFAGQMTGVEGYVESAASGLVAGINLAHKLLDKGEVIFPRETMIGSMAYYISHAKNEKNFQPMNANFGLLPSLEKRIKDKKERYEAQANRALEYLENYKKTLLEHHHHHH”, the “soluble on expression in E. coli” value was “soluble”. Regarding “MGSDKIHHHHHHMLINRNIVALFALPFMASATASELSIGAGAAYNESPYRGYNENTKAIPLISYEGDTFYVRQTTLGFILSQSEKNELSLTASWMPLEFDPTDNDDYAMQQLDKRDSTAMAGVAWYHHERWGTVKASAAADVLDNSNGWVGELSVFHKMQIGRLSLTPALGVLYYDENFSDYYYGISESESRRSGLASYSAQDAWVPYVSLTAKYPIGEHVVLMASAGYSELPEEITDSPMIDRNESFTFVTGVSWRF”, the “soluble on expression in E. coli” value is given as “not soluble”.

For the sequence “AKAAGSSIGQQDTLVMLLNFKENPNDQPITSEEAHALVFGEVNDFYQENSYGKTWLSGQVAGWYTLPVSDQVCDYPSVQAEADKMARADGIVLEDYQR”, the “soluble on expression in E. coli” value is given as “not soluble”. As for “MGSDKIHHHHHHMNFKQLNYFLVVAEEGQITSAAKRLFVGQPALSYQLKQLEEELGAKLFIRQPYGIELTEAGKKLRDYAGQILTLAQNVQTEITELDRGGWGRVKLGSVSSSIGELPSAKLTAFARQHPGVSFDIYEDNTFGILDKLQGNLLDLAIVRTPYNRVNLNFVDISDEPMTAVTCQDFFPGKGKVGLQDLAGQPLVIYRRFEDMFKEAFAEKGLTPNFVVKCDDSRTAIRWSDSGLGIALVPESIAKTYARGHIYPIDLAKWRTRLQLVWRKDRVVTPLMRQIIALYAK”, the “soluble on expression in E. coli” value is “not soluble”. “MGILKSLFTLGKSFISQAEESIEETQGVRMLEQHIRDAKAELDKAGKSRVDLLARVKLSHDKLKDLRERKASLEARALEALSKNVNPSLINEVAEEIARLENLITAEEQVLSNLEVSRDGVEKAVTATAQRIAQFEQQMEVVKATEAMQRAQQAVTTSTVGASSSVSTAAESLKRLQTRQAERQARLDAAAQLEKVADGRDLDEKLAEAGIGGSNKSSAQDVLARLQRQQGELEHHHHHH”: the “soluble on expression in E. coli” value is recorded as “not soluble”. For the sequence “MSDVARILKEARDQGRLTALDFAKEIFDDFIELHGDRNFRDDGAVIGGIGRLNGQAVTVVGIQKGKNLQDNLNRNFGQPHPEGYRKALRLMKQAEKFGRSVVTFINTAGAYPGVGAEERGQGEAIARNLMEMSDLKVPIIAIIIGEGGSGGALALAVADKVWMLENTIYSILSPEGFATILWKDGSRSEEAAELMKITSGELLNMGIVDKVIPERGYFTSEIIEAIKTAIVDELAELSQLSTEDLLEARYQRFRKY”, the “soluble on expression in E. coli” value is “not soluble”.

For “MSLNHTAVNTAQAIILRDLVDALLFEDIAGIVSNSEITKENGQTLLIYERETQQIKIPVYFSALNMFRYESSQPITIEGRVSKQPLTAAEFWQTIANMNCDLSHEWEVARVEEGLTTAATQLAKQLSELDLASHPFVMSEQFASLKDRPFHPLAKEKRGLREADYQVYQAELNQSFPLMVAAVKKTHMIHGDTANIDELENLTVPIKEQATDMLNDQGLSIDDYVLFPVHPWQYQHILPNVFAKEISEKLVVLLPLKFGDYLSSSSMRSLIDIGAPYNHVKVPFAMQSLGALRLTPTRYMKNGEQAEQLLRQLIEKDEALAKYVMVCDETAWWSYMGQDNDIFKDQLGHLTVQLRKYPEVLAKNDTQQLVSMAALAANDRTLYQMICGKDNISKNDVMTLFEDIAQVFLKVTLSFMQYGALPELHGQNILLSFEDGRVQKCVLRDHDTVRIYKPWLTAHQLSLPKYVVREDTPNTLINEDLETFFAYFQTLAVSVNLYAIIDAIQDLFGVSEHELMSLLKQILKNEVATISWVTTDQLAVRHILFDKQTWPFKQILLPLLYQRDSGGGSMPSGLTTVPNPMVTYDEGHHHHHH”, the “soluble on expression in E. coli” value is listed as “soluble”.

These data come from the DeepSol protein solubility set.
